From patent publication US20100166741A1 (Genentech, published 2010)

Legend:
[1] = target: T1, human FcγRIIa extracellular domain, His-tagged GST fusion (human, UniProt P12318 34-217); assay: ELISA, captured FcγR-GST, multimeric IgG
T1 construct: extracellular domain; also called hFcgRIIa; CD32A; not shown: C-terminal Gly/His6/GST tag
T1 sequence (looked up): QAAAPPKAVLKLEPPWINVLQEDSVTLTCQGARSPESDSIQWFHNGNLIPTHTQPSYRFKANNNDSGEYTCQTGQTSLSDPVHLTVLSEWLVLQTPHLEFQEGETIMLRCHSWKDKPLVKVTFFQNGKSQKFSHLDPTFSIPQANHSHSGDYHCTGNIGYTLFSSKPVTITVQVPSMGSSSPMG

[2] = target: T2, human FcγRIIb extracellular domain, His-tagged GST fusion (human, UniProt P31994 43-217); assay: ELISA, captured FcγR-GST, multimeric IgG
T2 construct: extracellular domain; also called hFcgRIIb; CD32B; not shown: C-terminal Gly/His6/GST tag
T2 sequence (looked up): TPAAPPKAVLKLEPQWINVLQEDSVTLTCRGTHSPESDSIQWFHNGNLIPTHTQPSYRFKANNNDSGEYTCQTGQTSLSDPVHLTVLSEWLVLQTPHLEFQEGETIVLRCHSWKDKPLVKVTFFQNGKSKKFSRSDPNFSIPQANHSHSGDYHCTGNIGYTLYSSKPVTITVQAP

[3] = target: T3, human FcγRIIIa (F158) extracellular domain, His-tagged GST fusion (human, UniProt P08637 17-208); assay: ELISA, captured FcγR-GST, multimeric IgG
T3 construct: extracellular domain; also called hFcgRIII (F158); FcγRIII (F158 allele); not shown: C-terminal Gly/His6/GST tag

[4] = target: T4, human FcγRIIIa (V158) extracellular domain, His-tagged GST fusion (human, UniProt P08637 17-208); assay: ELISA, captured FcγR-GST, multimeric IgG
T4 construct: extracellular domain; also called hFcgRIII (V158); FcγRIII (V158 allele); not shown: C-terminal Gly/His6/GST tag

[5] = target: T5, human FcγRI extracellular domain, His-tagged GST fusion (human, UniProt P12314 16-292); assay: ELISA, captured FcγR-GST, monomeric IgG
T5 construct: extracellular domain; also called hFcgRI; FcγRIA; not shown: C-terminal Gly/His6/GST tag

[6] = target: T6, mouse FcγRII extracellular domain, His-tagged GST fusion (mouse, UniProt P08101 30-210); assay: Fcγ receptor ELISA; bar = fold change in binding relative to Herceptin (EC50 Herceptin/EC50 sample), log axis 0.1-100
T6 construct: extracellular domain; also called Mouse II; not shown: His tag and GST
T6 sequence (looked up): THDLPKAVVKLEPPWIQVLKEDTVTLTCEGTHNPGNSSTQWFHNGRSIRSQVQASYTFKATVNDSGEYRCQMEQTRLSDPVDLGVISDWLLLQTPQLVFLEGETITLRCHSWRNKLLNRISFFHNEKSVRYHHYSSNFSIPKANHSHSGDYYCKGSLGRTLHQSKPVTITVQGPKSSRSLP

[7] = target: T7, mouse FcγRI extracellular domain, His-tagged GST fusion (mouse, UniProt P26151 25-297); assay: as above
T7 construct: extracellular domain; also called Mouse I; mFcγRI; not shown: His tag and GST
T7 sequence (looked up): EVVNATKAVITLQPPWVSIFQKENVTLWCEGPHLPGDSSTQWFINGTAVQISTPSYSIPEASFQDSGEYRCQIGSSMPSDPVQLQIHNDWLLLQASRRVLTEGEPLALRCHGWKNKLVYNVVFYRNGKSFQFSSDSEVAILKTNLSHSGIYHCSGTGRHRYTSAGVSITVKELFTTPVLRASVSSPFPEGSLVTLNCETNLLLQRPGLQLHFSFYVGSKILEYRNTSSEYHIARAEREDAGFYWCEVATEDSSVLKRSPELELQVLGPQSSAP

[8] = target: T8, mouse FcγRIII extracellular domain, His-tagged GST fusion (mouse, UniProt P08508 31-215); assay: as above
T8 construct: extracellular domain; also called Mouse III; not shown: His tag and GST
T8 sequence (looked up): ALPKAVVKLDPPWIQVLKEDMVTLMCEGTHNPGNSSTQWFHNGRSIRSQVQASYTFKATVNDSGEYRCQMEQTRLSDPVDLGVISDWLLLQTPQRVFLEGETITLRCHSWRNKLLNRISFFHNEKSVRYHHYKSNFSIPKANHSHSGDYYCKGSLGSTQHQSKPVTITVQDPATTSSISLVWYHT

T4 sequence (P08637 17-208 F176V): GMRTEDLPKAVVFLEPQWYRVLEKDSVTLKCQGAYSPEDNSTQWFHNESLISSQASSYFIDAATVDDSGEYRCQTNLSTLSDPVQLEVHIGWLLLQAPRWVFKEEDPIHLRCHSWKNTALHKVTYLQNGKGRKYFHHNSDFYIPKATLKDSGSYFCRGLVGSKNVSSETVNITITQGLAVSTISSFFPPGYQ
T3 sequence (P08637 17-208): as the sequence (P08637 17-208 F176V) above, with V160F counted along it

EC50 [1]: 0.3 µg/mL
EC50 [2]: 1.02 µg/mL
EC50 [3]: 1.52 µg/mL
EC50 [4]: 0.28 µg/mL
EC50 [5]: 0.00158 µg/mL
binding result [6]: binds
binding result [7]: binds
binding result [8]: binds
B1: V3-46s IgG (antibody)
heavy: not shown
light: DIQMTQSPSSLSASVGDRVTITCRASQDVSTAVAWYQQKPGKAPKLLIYSASFLYSGVPSRFSGSGSGTDFTLTISSLQPEDFATYYCQQSQISPPTFGQGTKVEIKRTVAAPSVFIFPPSDEQLKSGTASVVCLLNNFYPREAKVQWKVDNALQSGNSQESVTEQDSKDSTYSLSSTLTLSKADYEKHKVYACEVTHQGLSSPVTKSFNRGEC
notes: also called HV3-46S; HV3-46S-Bulk
